Source: paper PMC12700558, “Aggregation shifts amyloid-β peptides from synaptogenic to synaptotoxic” (The Journal of Clinical Investigation, 2025)

Experiments:
Format in all cases: cell-based
[1] = test system: human neurons; assay: Quantification of synaptic puncta (Synapsin-1 and PSD95), confocal; conditions: chronic treatment, DIV45
Description: Mature human iN cells were washed 3 times with PBS (Gibco) and fixed with 4% PFA (Electron Microscopy Science) and 4% sucrose (Sigma-Aldrich) in PBS for 10 minutes at room temperature. Cells were then washed three times with PBS, followed by permeabilization and blocking with 0.25% Triton-X-100 (Sigma-Aldrich), 2.5% bovine serum albumin (BSA) (GeminiBio) and 2,5% NGS (Sigma-Aldrich) for one hour at room temperature. Incubation with primary antibodies was performed overnight at 4°C in the corresponding blocking buffer ([41]). For endosome analyses, fixing solution contained only 4% PFA and the permeabilization was performed separately before the blocking step, using 0.1% Triton-X-100. Primary Antibodies used include rabbit monoclonal anti-Synapsin-1 (Yenzym antibodies, clone YZ6078, 1:1000 dilution), mouse monoclonal anti-PSD95 (Thermo Fisher Scientific, 7E3-1B8, 1:250 dilution), chicken polyclonal anti-MAP2 (EnCor, CPCA-MAP2, 1:1000 dilution), mouse monoclonal 6E10 (BioLegend, SIG-39320, 1:1000), rabbit monoclonal anti-Synaptophysin (homemade, P580 ([26])), and rabbit monoclonal anti-EEA1(Cell Signaling, C45B10, 1:1000 dilution). Cells were washed 3 times with PBS and incubated for 1 hour at room temperature with Alexa conjugated secondary antibodies: goat anti-chicken Alexa 647, goat anti-rabbit Alexa 546, goat anti-rabbit Alexa 488, and goat anti-mouse Alexa 488, all 1:500. […]

[2] = test system: human neurons; assay: Neuronal cell density (NLS-TdTomato-positive nuclei)
Description: The prepared aliquots of Aβ peptides were added directly to the culture media during each routine half-media change. To support optimal neuronal development, maturation, and function, while preserving essential factors released by neurons and glia, fresh media supplemented with Aβ was provided every other day until DIV10, and then once weekly until DIV45. […] During each media change, the Aβ peptides were introduced into the cultures to achieve final concentrations of 0.2 μM, 0.15 μM, 0.1 μM, 0.05 μM, 0.025 μM, and 0.005 μM. For scrambled and inverted sequence peptides, only the 0.2 μM and 0.025 μM concentrations were tested. At DIV6, we initiated a half-media replacement protocol in which 50% of the old culture medium was carefully removed and replaced with fresh medium containing Aβ peptides at twice the intended final concentration. […] For example, to achieve a final concentration of 0.2 μM, the fresh medium added at DIV6 was prepared at 0.4 μM, yielding a uniform 0.2 μM concentration after mixing with the peptide-free half. Starting from DIV8 and onward, subsequent half-media changes replaced half of the existing medium with fresh medium containing Aβ at the same target concentration (e.g., 0.2 μM), since the remaining half already contained approximately that amount. This approach was designed to mimic a chronic treatment regimen, allowing us to investigate the long-term effects of the peptides on synapse formation and neuronal activity under sustained exposure conditions.
To assess neuronal cytotoxicity induced by Aβ peptides, we employed a novel Td-Tomato cytotoxicity assay that we developed. Human neurons were infected at DIV 6 with a lentiviral vector carrying a plasmid encoding nuclear localization signal (NLS)-TdTomato under the control of the human Synapsin-1 promoter. The use of the Synapsin promoter ensured neuron-specific expression of Td-Tomato. […] When the neurons had reached full maturation, cells were examined for Td-Tomato localization. Neurons displaying cytoplasmic Td-Tomato were counted as indicators of cytotoxicity. […] For Aβ experiments, imaging and scoring were performed at DIV45, immediately after the final peptide exposure. Data were quantified by calculating the density of neurons with cytoplasmic Td-Tomato, normalized to control cultures, and presented graphically. To assess cell viability, the number of Td-Tomato–positive nuclei, which represent surviving neurons, was counted, normalized to control values, and reported in graphs.

[3] = test system: human neurons cocultured with mouse glia; assay: Quantification of 6E10-positive Aβ aggregates in human neuron cultures; conditions: for Density of 6E10-positive structures (number of structures per area of field of view) / Size of 6E10-positive structures (area fraction of the field of view occupied by aggregates): human neurons/mouse glia, DIV25
Description: Mature human iN cells were washed 3 times with PBS (Gibco) and fixed with 4% PFA (Electron Microscopy Science) and 4% sucrose (Sigma-Aldrich) in PBS for 10 minutes at room temperature. Cells were then washed three times with PBS, followed by permeabilization and blocking with 0.25% Triton-X-100 (Sigma-Aldrich), 2.5% bovine serum albumin (BSA) (GeminiBio) and 2,5% NGS (Sigma-Aldrich) for one hour at room temperature. Incubation with primary antibodies was performed overnight at 4°C in the corresponding blocking buffer ([41]). For endosome analyses, fixing solution contained only 4% PFA and the permeabilization was performed separately before the blocking step, using 0.1% Triton-X-100. Primary Antibodies used include rabbit monoclonal anti-Synapsin-1 (Yenzym antibodies, clone YZ6078, 1:1000 dilution), mouse monoclonal anti-PSD95 (Thermo Fisher Scientific, 7E3-1B8, 1:250 dilution), chicken polyclonal anti-MAP2 (EnCor, CPCA-MAP2, 1:1000 dilution), mouse monoclonal 6E10 (BioLegend, SIG-39320, 1:1000), rabbit monoclonal anti-Synaptophysin (homemade, P580 ([26])), and rabbit monoclonal anti-EEA1(Cell Signaling, C45B10, 1:1000 dilution). Cells were washed 3 times with PBS and incubated for 1 hour at room temperature with Alexa conjugated secondary antibodies: goat anti-chicken Alexa 647, goat anti-rabbit Alexa 546, goat anti-rabbit Alexa 488, and goat anti-mouse Alexa 488, all 1:500. Coverslips were washed once with PBS and once with water to remove salts before mounting, then were mounted using Fluoromount (with DAPI) (Thermo Fisher Scientific, 00-4959-52) on glass slides. All images were taken with the Nikon A1RSi confocal microscope (Nikon Instruments Inc.) for analysis of synaptic puncta using Nikon Analysis Software.
To quantify the density and size of 6E10-immunopositive aggregates, we acquired high-resolution confocal images at 60x magnification using a Nikon Eclipse Ti microscope (Nikon, Japan). All fluorescence parameters, including laser power and detector settings, were held constant throughout image acquisition to ensure comparability across samples. We then processed and analyzed the resulting images with Nikon Analysis Software, employing standardized thresholds for object detection. For analyses conducted in human neurons, the density of 6E10-positive aggregates was determined by calculating the number of discrete objects per unit area of the imaged field. In contrast, for analyses in primary neurons, we recorded the total number of discrete objects within each field. In both cases, we measured particle size as the fraction of the total field occupied by 6E10-positive signals, using a binary region of interest encompassing the entire field of view. This approach allowed for consistent, unbiased quantification of both the distribution and relative size of immunofluorescent aggregates under different experimental conditions.

[4] = 0.1uM chronic, biological replicate 1
[5] = 0.1uM chronic, biological replicate 2
[6] = 0.1uM chronic, biological replicate 3
[7] = 0.2uM chronic, biological replicate 1
[8] = 0.2uM chronic, biological replicate 2
[9] = 0.2uM chronic, biological replicate 3

**Q.** For “-.DAEFRHDSGYEVHHQKLVFFAGDVGSNKGAIIGLMVGGVVI.A [Aβ42^arctic]”, which Loss of synapses ([1]; high concentrations) is on record?
**A.** greater than 55%

**Q.** And the “Effect on synapse numbers (in words)” value ([1]; lower concentrations)?
**A.** did not increase synapse numbers

**Q.** And the “Neuronal cell density, values normalized to Ctrl (Figure 1E)” value (from here on “Neuronal cell density, values normalized”) ([2]; 0.005 uM chronic DIV6-DIV45, DIV45, biological replicate 1)?
**A.** 0.9504

**Q.** And the “Neuronal cell density, values normalized” value ([2]; 0.005 uM chronic DIV6-DIV45, DIV45, biological replicate 2)?
**A.** 0.943

**Q.** And the “Neuronal cell density, values normalized” value ([2]; 0.005 uM chronic DIV6-DIV45, DIV45, biological replicate 3)?
**A.** 0.9651

**Q.** What about the “Neuronal cell density, values normalized” value ([2]; 0.05 uM chronic DIV6-DIV45, DIV45, biological replicate 1) of the same substance?
**A.** 0.9651

**Q.** What about the “Neuronal cell density, values normalized” value ([2]; 0.05 uM chronic DIV6-DIV45, DIV45, biological replicate 2) of the same substance?
**A.** 0.9896

**Q.** And the “Neuronal cell density, values normalized” value ([2]; 0.05 uM chronic DIV6-DIV45, DIV45, biological replicate 3)?
**A.** 1.07

**Q.** What about the “Neuronal cell density, values normalized” value ([2]; 0.1 uM chronic DIV6-DIV45, DIV45, biological replicate 1) of the same substance?
**A.** 0.9054

**Q.** And the “Neuronal cell density, values normalized” value ([2]; 0.1 uM chronic DIV6-DIV45, DIV45, biological replicate 2)?
**A.** 0.8702

**Q.** What about the “Neuronal cell density, values normalized” value ([2]; 0.1 uM chronic DIV6-DIV45, DIV45, biological replicate 3) of the same substance?
**A.** 1.014

**Q.** And the “Neuronal cell density, values normalized” value ([2]; 0.2 uM chronic DIV6-DIV45, DIV45, biological replicate 1)?
**A.** 0.8081

**Q.** What about the “Neuronal cell density, values normalized” value ([2]; 0.2 uM chronic DIV6-DIV45, DIV45, biological replicate 2) of the same substance?
**A.** 0.8351

**Q.** And the “Neuronal cell density, values normalized” value ([2]; 0.2 uM chronic DIV6-DIV45, DIV45, biological replicate 3)?
**A.** 0.7942

**Q.** What about the “Decrease of neuronal cell numbers” value ([2]; higher concentrations, chronic exposure, DIV45) of the same substance?
**A.** approximately 15%

**Q.** And the “Density of 6E10-positive structures (number of structures per area of field of view)” value [3, 4]?
**A.** 0.009289

**Q.** What about the “Size of 6E10-positive structures (area fraction of the field of view occupied by aggregates)” value [3, 4] of the same substance?
**A.** 0.02043

**Q.** And the “Density of 6E10-positive structures (number of structures per area of field of view)” value [3, 5]?
**A.** 0.01336

**Q.** What about the “Size of 6E10-positive structures (area fraction of the field of view occupied by aggregates)” value [3, 5] of the same substance?
**A.** 0.034

**Q.** What about the “Density of 6E10-positive structures (number of structures per area of field of view)” value [3, 6] of the same substance?
**A.** 0.01613

**Q.** What about the “Size of 6E10-positive structures (area fraction of the field of view occupied by aggregates)” value [3, 6] of the same substance?
**A.** 0.04071

**Q.** What about the “Density of 6E10-positive structures (number of structures per area of field of view)” value [3, 7] of the same substance?
**A.** 0.03615

**Q.** And the “Size of 6E10-positive structures (area fraction of the field of view occupied by aggregates)” value [3, 7]?
**A.** 0.05614

**Q.** And the “Density of 6E10-positive structures (number of structures per area of field of view)” value [3, 8]?
**A.** 0.04641

**Q.** What about the “Size of 6E10-positive structures (area fraction of the field of view occupied by aggregates)” value [3, 8] of the same substance?
**A.** 0.04714

**Q.** And the “Density of 6E10-positive structures (number of structures per area of field of view)” value [3, 9]?
**A.** 0.06233

**Q.** What about the “Size of 6E10-positive structures (area fraction of the field of view occupied by aggregates)” value [3, 9] of the same substance?
**A.** 0.04014

**Q.** And the “6E10-positive Aβ aggregates in treated human neurons (in words)” value ([3]; chronic exposure, immunofluorescence with 6E10 antibody)?
**A.** significant 6E10-positive Aβ aggregates
